The source of these data is paper PMC11685791, “Noncanonical calcium binding motif controls folding of HopQ1, a Pseudomonas syringae type III secretion effector, in a pH-dependent manner” (Scientific Reports, 2024).

Data set [1] deals with Recombinant HopQ1 with a C-terminal 6 × His epitope (Pseudomonas savastanoi pv. phaseolicola 1448A (former Pseudomonas syringae pv. phaseolicola 1448A)) (UniProt Q48BD8). Nature of the data set: SEC-MALS; native (non-reducing) conditions; Superdex 200 10/300GL, 100 mM Tris-HCl, 150 mM NaCl, pH 8.0, 4 °C; 0.4 mg protein per run. For orientation: SEC sorts molecules by how far they enter the pores of the column.

For data set [2] the target is unchanged. As to the kind of experiment: SEC; gel filtration on Superdex 200, reducing conditions with chelating agent (1 mM EDTA).
Data set [3] addresses HopQ1 fused to ECFP or EYFP, expressed in N. benthamiana (Pseudomonas savastanoi pv. phaseolicola 1448A (former Pseudomonas syringae pv. phaseolicola 1448A)) (UniProt Q48BD8). Nature of the data set: FRET or BRET; FLIM-FRET in nuclei of N. benthamiana leaf cells; donor fused to ECFP, acceptor fused to EYFP, transiently co-expressed; eight to ten nuclei per combination. In general terms: BRET reads energy transfer from a luciferase to a nearby fluorophore.

Data set [4] concerns the molecule itself. Nature of the data set: SEC; gel filtration on Superdex 200, reducing conditions with chelating agent (1 mM EDTA).
Data set [5] concerns the molecule itself. Nature of the data set: SEC; gel filtration on Superdex 200 of the calcium-site mutant; 'all the conditions tested' (not listed for the mutant).

“And” between values parts separate entries of the source, which are not always exact repeats. Equal values may be shown once.

For orientation: stoichiometry N means a count of units in the complex or per binding partner.

Turning to “Recombinant HopQ1 with a C-terminal 6 × His epitope (from UniProt Q48BD8 1-447) (natural protein)”, the stoichiometry N in data set [1] is 2 and 3; in data set [2] it was 2.

Regarding Nt14-3-3a-ECFP (natural protein), the FRET efficiency in data set [3] came out at 14.2%.

B1: RihA, a pyrimidine-specific ribonucleoside hydrolase from E. coli K-12 (enzyme, UniProt P41409 1-311, looked up)
chain: MALPILLDCDPGHDDAIAIVLALASPELDVKAITSSAGNQTPEKTLRNVLRMLTLLNRTDIPVAGGAVKPLMRELIIADNVHGESGLDGPALPEPTFAPQNCTAVELMAKTLRESAEPVTIVSTGPQTNVALLLNSHPELHSKIARIVIMGGAMGLGNWTPAAEFNIYVDPEAAEIVFQSGIPVVMAGLDVTHKAQIHVEDTERFRAIGNPVSTIVAELLDFFLEYHKDEKWGFVGAPLHDPCTIAWLLKPELFTSVERWVGVETQGKYTQGMTVVDYYYLTGNKPNATVMVDVDRQGFVDLLADRLKFYA
notes: RihA (also known as YbeK), pyrimidine-specific ribonucleoside hydrolase of E. coli K-12; also called YbeK; source: E. coli BL21 Rosetta, purified
For the molecule B1, the “stoichiometry N” value in data set [4] came to 4.

B2: HopQ1-D107A_D108A (recombinant, 6 × His) (natural protein)
chain: MHRPITAGHTTSRLILDQLKQISRTPSESSVQSALSQQASMSSPVLERSKSAPALLTAAQRTMLAQVGACNSHLTSDENMAINELRLHKPRLPKDTWFFTDPNKDPAAVVTYTLGKQLQAEGFVHITDVVATLGDAEVRSQRAEMAKGVFNKLGLHDVHVSRGRDYAMNSLQSKEHAKFLLEGHALRAGPGEIHRDSLQDMSRRLARAPHGVGIVVIAGMSDINALITTCPDMVRERVDDITIMGGVEPLKDADGFVQPDARAYNNATDMDAARSLYRKAQELGIPLRIVTKEAAYKTAVSPSFYEGIAGSGHPVGHYLRDVQKSALKGLWEGIQAGLLPGLDDSWFFRTFMPNAQIEAAQLDKNKESSFEDIWPKVTKLNLYDPLTLLASVPGAAKLLFKPKAIHTEGFGVVEQVGPDDVTHPEKAKLLMSALAKSALVQSTVAPD
notes: HopQ1 of Pseudomonas savastanoi pv. phaseolicola 1448A, GenBank AAZ37975.1, with D107A and D108A; source: E. coli BL21 Rosetta, purified
Consider B2, for which the “stoichiometry N” value in data set [5] amounted to 2.
